Experiments:
Settings in all cases: all L-DNA (mirror image); ITC: 20 mM HEPES-NaOH, 150 mM NaCl, 5 mM KCl, 2 mM MgCl2, 1 mM CaCl2, pH 7.4, 25 C; EMSA: same plus 0.05% Tween 20 and 10% glycerol, room temperature 30 min …
[1] = target: T1, native human alpha-thrombin (Homo sapiens) (UniProt P00734+P00734); assay: EMSA
[2] = target: native bovine alpha-thrombin (Bos taurus (bovine)) (UniProt P00735+P00735); assay: ITC
[3] = target: T1, native human alpha-thrombin (Homo sapiens); assay: ITC
[4] = target: T1, native human alpha-thrombin (Homo sapiens); assay: thrombin activity inhibition

Sequence	Kd [1] [nM]	Kd [2] [nM]	Kd [3] [nM]	IC50 [4] [nM]
ACGGAACGCGTTTCAAGACTACCGTGTTTGTTCCGT [Cy5-L-9-1t aptamer]	21			
ACGGAACGCGTTTCAAGACTACCGTGTTTGTTCCGT [L-9-1t aptamer]		1030	39	
CGGATCCAGTTACGGAACGCGTTTCAAGACTACCGTGTTTGTTCCGTTCATTCAGTAAGCTTCGG [L-9-1 aptamer]			29	
CGGATCCAGTTACGGATGAACTTGTTGAAACCCAACGGGAGAATCGTTCATTCAGTAAGCTTCGG [L-9-2 aptamer]			168	317
CGGATCCAGTTACGGATGAACTTGTTGAAACCCAACGGGAGCCTCGTTCATTCAGTAAGCTTCGGTGG [L-13 aptamer]			22	27
GATGAACTTGTTGAAACCCAACGGGAGAATCGTTCATT [Cy5-L-9-2t aptamer]	355			
GATGAACTTGTTGAAACCCAACGGGAGAATCGTTCATT [L-9-2t aptamer]		426	251	479
GATGAACTTGTTGAAACCCAACGGGAGCCTCGTTCATT [Cy5-L-13t aptamer]	28			
GATGAACTTGTTGAAACCCAACGGGAGCCTCGTTCATT [L-13t aptamer]		340	34	46
GGAACGCGTTTCAAGACTACCGTGTTTGTTCC [L-9-1t' aptamer]			111	

Source: publication PMC9646512
